Molecular target: T1, CD30 on CD30+ lymphoma cells (KARPAS-299) (UniProt P28908 19-595, limits assumed)
T1 sequence (looked up): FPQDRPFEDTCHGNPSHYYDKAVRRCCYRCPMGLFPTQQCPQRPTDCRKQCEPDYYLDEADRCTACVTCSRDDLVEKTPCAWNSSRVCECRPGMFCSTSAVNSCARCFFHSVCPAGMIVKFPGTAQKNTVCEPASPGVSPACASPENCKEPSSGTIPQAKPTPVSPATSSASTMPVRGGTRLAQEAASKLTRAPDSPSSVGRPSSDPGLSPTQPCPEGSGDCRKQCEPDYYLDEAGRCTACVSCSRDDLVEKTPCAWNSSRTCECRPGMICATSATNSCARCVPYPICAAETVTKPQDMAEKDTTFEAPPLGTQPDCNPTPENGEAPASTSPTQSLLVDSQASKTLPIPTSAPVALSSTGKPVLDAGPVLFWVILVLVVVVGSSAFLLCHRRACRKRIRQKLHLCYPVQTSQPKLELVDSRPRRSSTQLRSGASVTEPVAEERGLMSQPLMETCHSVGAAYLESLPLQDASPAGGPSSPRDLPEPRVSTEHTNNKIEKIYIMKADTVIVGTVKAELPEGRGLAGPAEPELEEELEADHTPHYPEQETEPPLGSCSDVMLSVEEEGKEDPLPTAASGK
Assay: cell-based or functional assay

potency and efficacy toward target and effector cells (EC50): 0.015 nM
B1: bispecific CD30/CD16A tandem diabody (AFM13) (bispecific antibody)
chain: QVQLVQSGAEVKKPGESLKVSCKASGYTFTSYYMHWVRQAPGQGLEWMGIINPSGGSTSYAQKFQGRVTMTRDTSTSTVYMELSSLRSEDTAVYYCARGSAYYYDFADYWGQGTLVTVSSGGSGGSGGSDIVMTQSPKFMSTSVGDRVTVTCKASQNVGTNVAWFQQKPGQSPKVLIYSASYRYSGVPDRFTGSGSGTDFTLTISNVQSEDLAEYFCQQYHTYPLTFGGGTKLEINGGSGGSGGSQVQLQQSGAELARPGASVKMSCKASGYTFTTYTIHWVRQRPGHDLEWIGYINPSSGYSDYNQNFKGKTTLTADKSSNTAYMQLNSLTSEDSAVYYCARRADYGNYEYTWFAYWGQGTTVTVSSGGSGGSGGSSYVLTQPSSVSVAPGQTATISCGGHNIGSKNVHWYQQRPGQSPVLVIYQDNKRPSGIPERFSGSNSGNTATLTISGTQAMDEADYYCQVWDNYSVLFGGGTKLTVL
